Blank lines part the entries; values can stand above or below the binder they belong to.
B2: hTSLP1-m-mFc (Fc fusion)
chain: YDFTNCDFEKIKAAYLSTISKDLITYMSGTKSTEFNNTVSCSNRPHCLTEIQSLTFNPTAGCASLAKEMFAMKTKAALAIWCPGYSETQINATQAMKKVTTNKCLEQVSQLQGLWRRFNRPLLKQQPRGPTIKPCPPCKCPAPNLLGGPSVFIFPPKIKDVLMISLSPIVTCVVVDVSEDDPDVQISWFVNNVEVHTAQTQTHREDYNSTLRVVSALPIQHQDWMSGKEFKCKVNNKDLPAPIERTISKPKGSVRAPQVYVLPPPEEEMTKKQVTLTCMVTDFMPEDIYVEWTNNGKTELNYKNTEPVLDSDGSYFMYSKLRVEKKNWVERNSYSCSVVHEGLHNHHTTKSFSRTPGK
notes: also called recombinant protein hTSLP1-m-mFc

Tests used:
[1] = molecular target: B2; assay: SPR (Biacore T200): hTSLP1-m-mFc captured (about 80 RU) by anti-mFc antibody on CM5, antibody at 50 µg/mL [continued) E]
Description: (§1) The recombinant protein hTSLP1-m-mFc was diluted to 2 μg/mL with 1×HBS-EP buffer, and was injected at 10 μL/min for 12 s. Approximately 80 RU of hTSLP1-m-mFc was captured by the anti-mFc antibody. […] Two molecules were sequentially injected using a double injection mode of Biacore T200. […] Each of the molecules was injected for 90 s. The surface of the chip was regenerated at the end of the injection by injecting 10 mM glycine-HCl (pH 1.7) at 10 μL/min for 30 s. The Y-axis reporting points for the double baselines were zeroed using Biacore T200 evaluation software version 3.0, and then the RU values were plotted against times using GraphPad software.

[2] = molecular target: cynomolgus monkey TSLP (mfTSLP) (cynomolgus monkey (Macaca fascicularis)); assay: SPR Biacore X100 as in Example 3.1, antibody captured, mfTSLP as analyte
[3] = molecular target: T1, hTSLP:hTSLPR complex (hTSLP1-m-mFc with hTSLPR-ECD bound, formed on the chip) (human (Homo sapiens), UniProt Q9HC73 23-231); assay: SPR (Biacore T200): chip surface with hTSLP1-m-mFc captured by anti-mFc antibody and loaded with hTSLPR-ECD, antibody at 50 µg/mL injected before hIL-7Rα-ECD [continued) D]
T1 construct: also called TSLP:TSLPR complex
Description: (§2) Two molecules were sequentially injected using a double injection mode of Biacore T200. […] Each of the molecules was injected for 60 s. The surface of the chip was regenerated at the end of the injection by injecting 10 mM glycine-HCl (pH 1.7) at 10 μL/min for 30 s. The Y-axis reporting points for the double baselines were zeroed using Biacore T200 evaluation software version 3.0, and then the RU values were plotted against times using GraphPad software.

[4] = molecular target: T2, extracellular domain of human TSLP receptor (hTSLPR-ECD) (human (Homo sapiens), UniProt Q9HC73 23-231); assay: SPR (Biacore T200): hTSLP1-m-mFc captured (about 80 RU) by anti-mFc antibody on CM5, buffer then hTSLPR-ECD at 100 µg/mL
T2 sequence: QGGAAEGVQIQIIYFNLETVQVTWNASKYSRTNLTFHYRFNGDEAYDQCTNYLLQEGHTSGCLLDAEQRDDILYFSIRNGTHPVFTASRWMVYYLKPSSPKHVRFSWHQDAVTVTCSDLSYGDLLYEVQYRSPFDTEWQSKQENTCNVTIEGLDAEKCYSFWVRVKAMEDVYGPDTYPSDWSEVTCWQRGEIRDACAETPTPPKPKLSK
Description: as §1

[5] = molecular target: B2; assay: SPR (Biacore T200): hTSLP1-m-mFc captured (about 80 RU) by anti-mFc antibody on CM5, antibody at 50 µg/mL [continued) C]
Description: as §1

[6] = molecular target: T1, hTSLP:hTSLPR complex (hTSLP1-m-mFc with …); assay: SPR (Biacore T200): chip surface with hTSLP1-m-mFc captured by anti-mFc antibody and loaded with hTSLPR-ECD, antibody at 50 µg/mL injected before hIL-7Rα-ECD [continued) B]
Description: as §2

[7] = molecular target: T1, hTSLP:hTSLPR complex (hTSLP1-m-mFc with …); assay: SPR (Biacore T200): chip surface with hTSLP1-m-mFc captured by anti-mFc antibody and loaded with hTSLPR-ECD, antibody at 50 µg/mL injected before hIL-7Rα-ECD [continued) C]
Description: as §2

[8] = molecular target: B2; assay: SPR (Biacore T200): hTSLP1-m-mFc captured (about 80 RU) by anti-mFc antibody on CM5, antibody at 50 µg/mL [continued) D]
Description: as §1

B1: H1A10×H3B10-M1+L3E8-M7 BsAb (anti-human TSLP bispecific antibody) (bispecific antibody, human IgG1, kappa)
heavy 1: QVQLVQSGAEVKKPGASVKVSCKASGYAFSNYWMNWVRQAPGQGLEWMGQIFPGDSDTDYDQKFQGRVTMTRDTSTSTVYMELSSLRSEDTAVYYCARAGYYRGYYAMDYWGQGTTVTVSSASTKGPSVFPLAPSSKSTSGGTAALGCLVKDYFPEPVTVSWNSGALTSGVHTFPAVLQSSGLYSLSSVVTVPSSSLGTQTYICNVNHKPSNTKVDKRVEPKSCDKTHTCPPCPAPEFEGGPSVFLFPPKPKDTLMISRTPEVTCVVVDVSHEDPEVKFNWYVDGVEVHNAKTKPREEQYNSTYRVVSVLTVLHQDWLNGKEYKCKVSNKALPASIEKTISKAKGQPREPQVYTLPPCREEMTKNQVSLWCLVKGFYPSDIAVEWESNGQPENNYKTTPPVLDSDGSFFLYSKLTVDKSRWQQGNVFSCSVMHEALHNHYTQKSLSLSPGK
heavy 2: QVTLKESGPVLVKPTETLTLTCTVSGFSLSSYDISWIRQPPGKALEWLGVIWSEGGTSYSTSLKSRLTISKDTSKSQVVLTMTNMDPVDTATYYCARDSDDGYLNWGQGTLVTVSSASTKGPSVFPLAPSSKSTSEGTAALGCLVKDYFPEPVTVSWNSGALTSGVHTFPAVLQSSGLYSLSSVVTVPSSSLGTQTYICNVDHKPSNTKVDKTVEPKSCDKTHTCPPCPAPEFEGGPSVFLFPPKPKDTLMISRTPEVTCVVVDVSQEDPEVQFNWYVDGVEVHNAKTKPREEQYNSTYRVVSVLTVLHQDWLNGKEYKCKVSNKALPASIEKTISKAKGQPREPQVCTLPPSQEEMTKNQVSLSCAVKGFYPSDIAVEWESNGQPENNYKTTPPVLDSDGSFFLVSKLTVDKSRWQEGNVFSCSVMHEALHNHYTQKSLSLSPGK
light: EIVMTQSPATLSVSPGERATLSCSVSSSISSSNLHWYQQKPGQAPRPWIYGTSNLASGIPARFSGSGSGTEFTLTISSVQAEDFAVYYCQQWSSYPLTFGQGTKLEIKRTVAAPSVFIFPPSDEQLKSGTASVVCLLNNFYPREAKVQWKVDNALQSGNSQESVTEQDSKDSTYSLSSTLTLSKADYEKHKVYACEVTHQGLSSPVTKSFNRGEC
notes: also called bispecific antibody H1A10×H3B10-M1+L3E8-M7; bispecific antibody H1A10×H3B10-M1
binding result [1]: binds
Kd [2]: 2.75 nM
binding result [3]: binds

Binder: B2
binding result [4]: binds

Now from value to binder:

binding result [5]: binds
binding result [6]: binds
B3: H3B10-M1+L3E8-M7 (humanized monoclonal antibody) (antibody, V domains shown)
VH: QVTLKESGPVLVKPTETLTLTCTVSGFSLSSYDISWIRQPPGKALEWLGVIWSEGGTSYSTSLKSRLTISKDTSKSQVVLTMTNMDPVDTATYYCARDSDDGYLNWGQGTLVTVSS
VL: EIVMTQSPATLSVSPGERATLSCSVSSSISSSNLHWYQQKPGQAPRPWIYGTSNLASGIPARFSGSGSGTEFTLTISSVQAEDFAVYYCQQWSSYPLTFGQGTKLEIK
notes: Expressed as a whole antibody

binding result [7]: binds
binding result [8]: binds
B4: H1A10+L3E8-M7 (humanized monoclonal antibody) (antibody, V domains shown)
VH: QVQLVQSGAEVKKPGASVKVSCKASGYAFSNYWMNWVRQAPGQGLEWMGQIFPGDSDTDYDQKFQGRVTMTRDTSTSTVYMELSSLRSEDTAVYYCARAGYYRGYYAMDYWGQGTTVTVSS
VL: EIVMTQSPATLSVSPGERATLSCSVSSSISSSNLHWYQQKPGQAPRPWIYGTSNLASGIPARFSGSGSGTEFTLTISSVQAEDFAVYYCQQWSSYPLTFGQGTKLEIK
notes: Expressed as a whole antibody

Reference: US20240132581A1 (BEIJING WISDOMAB BIOTECHNOLOGY, published 2024)
